Source: article PMC6598095 (Journal of Experimental Botany, 2019)

B1: AtMYB61 (natural protein)
chain: not shown
B2: AtTT2 (natural protein)
chain: MGKRATTSVRREELNRGAWTDHEDKILRDYITTHGEGKWSTLPNQAGLKRCGKSCRLRWKNYLRPGIKRGNISSDEEELIIRLHNLLGNRWSLIAGRLPGRTDNEIKNHWNSNLRKRLPKTQTKQPKRIKHSTNNENNVCVIRTKAIRCSKTLLFSDLSLQKKSSTSPLPLKEQEMDQGGSSLMGDLEFDFDRIHSEFHFPDLMDFDGLDCGNVTSLVSSNEILGELVPAQGNLDLNRPFTSCHHRGDDEDWLRDFTC
B3: AtPAP2 (natural protein)
chain: MEGSSKGLRKGAWTAEEDSLLRLCIDKYGEGKWHQVPLRAGLNRCRKSCRLRWLNYLKPSIKRGRLSNDEVDLLLRLHKLLGNRWSLIAGRLPGRTANDVKNYWNTHLSKKHESSCCKSKMKKKNIISPPTTPVQKIGVFKPRPRSFSVNNGCSHLNGLPEVDLIPSCLGLKKNNVCENSITCNKDDEKDDFVNNLMNGDNMWLENLLGENQEADAIVPEATTAEHGATLAFDVEQLWSLFDGETVELD
B4: AtPAP1 (natural protein)
chain: MEGSSKGLRKGAWTTEEDSLLRQCINKYGEGKWHQVPVRAGLNRCRKSCRLRWLNYLKPSIKRGKLSSDEVDLLLRLHRLLGNRWSLIAGRLPGRTANDVKNYWNTHLSKKHEPCCKIKMKKRDITPIPTTPALKNNVYKPRPRSFTVNNDCNHLNAPPKVDVNPPCLGLNINNVCDNSIIYNKDKKKDQLVNNLIDGDNMWLEKFLEESQEVDILVPEATTTEKGDTLAFDVDQLWSLFDGETVKFD
B5: AtGL1 (natural protein)
chain: MRIRRRDEKENQEYKKGLWTVEEDNILMDYVLNHGTGQWNRIVRKTGLKRCGKSCRLRWMNYLSPNVNKGNFTEQEEDLIIRLHKLLGNRWSLIAKRVPGRTDNQVKNYWNTHLSKKLVGDYSSAVKTTGEDDDSPPSLFITAATPSSCHHQQENIYENIAKSFNGVVSASYEDKPKQELAQKDVLMATTNDPSHYYGNNALWVHDDDFELSSLVMMNFASGDVEYCL
B6: AtWER (natural protein)
chain: MRKKVSSSGDEGNNEYKKGLWTVEEDKILMDYVKAHGKGHWNRIAKKTGLKRCGKSCRLRWMNYLSPNVKRGNFTEQEEDLIIRLHKLLGNRWSLIAKRVPGRTDNQVKNYWNTHLSKKLGIKDQKTKQSNGDIVYQINLPNPTETSEETKISNIVDNNNILGDEIQEDHQGSNYLSSLWVHEDEFELSTLTNMMDFIDGHCF

Target: T1, AtGL3 (F177I) (Arabidopsis thaliana, UniProt Q9FN69 1-637, F177I)
T1 sequence: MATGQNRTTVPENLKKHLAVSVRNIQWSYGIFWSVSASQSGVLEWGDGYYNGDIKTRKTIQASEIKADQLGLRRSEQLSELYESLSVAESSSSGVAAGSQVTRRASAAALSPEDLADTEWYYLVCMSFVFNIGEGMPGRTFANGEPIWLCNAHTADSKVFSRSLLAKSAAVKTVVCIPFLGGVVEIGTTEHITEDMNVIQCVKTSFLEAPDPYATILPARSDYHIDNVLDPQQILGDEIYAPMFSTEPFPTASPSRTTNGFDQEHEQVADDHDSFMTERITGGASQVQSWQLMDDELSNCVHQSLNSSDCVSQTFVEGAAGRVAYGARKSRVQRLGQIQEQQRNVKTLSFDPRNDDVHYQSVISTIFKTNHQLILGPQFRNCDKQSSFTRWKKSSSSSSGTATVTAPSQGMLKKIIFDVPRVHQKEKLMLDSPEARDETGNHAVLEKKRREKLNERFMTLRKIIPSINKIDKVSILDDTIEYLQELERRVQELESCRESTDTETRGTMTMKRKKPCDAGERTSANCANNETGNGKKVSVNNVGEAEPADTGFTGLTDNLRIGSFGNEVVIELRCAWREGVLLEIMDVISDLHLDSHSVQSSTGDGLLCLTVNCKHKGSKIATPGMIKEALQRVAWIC
Assay: pull-down

Binder	percent reduction of binding against wild-type AtGL3 [%]
B1	30
B2	30
B3	30
B4	30
B5	30
B6	30
